# Source: patent CN114591430A
# Values joined by “and” are separate entries in the source; they are usually repeats but may differ in a detail not shown here. Identical values can stand only once.
# B1: BSA抗体B2 (antibody, V domains shown)
# VH: VKLQESGGGLVKPGGSLKLSCAASGFTFSLYDESWVRQTPEKRLEWVAEIFLGVYRYVPESKVRFTMSRDNAKNTLYLQMSSLRSEDTAMYYCVRLCYWEPEVKKCWGQGTTVTVSS
# VL: DIELTQSPLTLSVTIGQPASISCESDLSLKESLDWLLQRPGQSPKRLIYEDLNADCGVPDRFTGSGSGTDSTLKISRVEAEDLGVYYCEIKGTFRWSFGGGTKLEIK
# Tests used:
# HEK293细胞裂解液 [1] = experiment: sandwich ELISA, coat B2, detection biotin-B6, lysate 1 mg/ml
# CHO细胞裂解液 [2] = experiment: as above
# Vero细胞裂解液 [3] = experiment: as above
# 牛血清白蛋白(BSA) (bovine) [4] = biological target: 牛血清白蛋白(BSA) (bovine) (UniProt P02769); experiment: indirect ELISA, BSA coated at 1 ug/ml, purified antibody at dilution 16K, HRP goat anti-mouse IgG
# UniProt P02769, sequence (P02769 25-607): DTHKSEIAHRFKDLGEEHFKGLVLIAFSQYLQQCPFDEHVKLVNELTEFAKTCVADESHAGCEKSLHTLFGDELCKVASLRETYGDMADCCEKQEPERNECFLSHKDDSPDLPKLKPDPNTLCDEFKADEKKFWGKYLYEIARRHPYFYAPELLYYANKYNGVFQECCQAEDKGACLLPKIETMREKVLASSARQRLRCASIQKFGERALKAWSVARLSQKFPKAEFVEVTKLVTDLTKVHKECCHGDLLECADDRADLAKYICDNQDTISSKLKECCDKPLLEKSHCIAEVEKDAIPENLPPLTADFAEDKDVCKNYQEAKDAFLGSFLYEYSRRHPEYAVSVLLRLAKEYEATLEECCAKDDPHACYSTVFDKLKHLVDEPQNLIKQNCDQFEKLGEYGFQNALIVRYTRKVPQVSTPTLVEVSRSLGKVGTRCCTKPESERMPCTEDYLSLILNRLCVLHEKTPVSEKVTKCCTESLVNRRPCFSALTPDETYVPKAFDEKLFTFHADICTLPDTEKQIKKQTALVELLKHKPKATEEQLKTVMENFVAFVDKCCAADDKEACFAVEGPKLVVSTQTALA
# 牛血清白蛋白(BSA) (bovine) [5] = biological target: 牛血清白蛋白(BSA) (bovine) (UniProt P02769); experiment: sandwich ELISA, coat B2 2 ug/ml, BSA 48 ng/ml, detection biotin-B6 0.2 ug/ml, mean of A and B
# 牛血清白蛋白(BSA) (bovine) [6] = biological target: 牛血清白蛋白(BSA) (bovine) (UniProt P02769); experiment: sandwich ELISA, coat B2 2 ug/ml, BSA 0.75 ng/ml, detection biotin-B6 0.2 ug/ml
# HEK293细胞裂解液 [7] = experiment: sandwich ELISA, coat B2, detection biotin-B6, lysate 500 ug/ml
# CHO细胞裂解液 [8] = experiment: as above
# Vero细胞裂解液 [9] = experiment: as above
# 牛血清白蛋白(BSA) (bovine) [10] = biological target: 牛血清白蛋白(BSA) (bovine) (UniProt P02769); experiment: indirect ELISA, BSA coated at 1 ug/ml, purified antibody at dilution 1K, HRP goat anti-mouse IgG
# 牛血清白蛋白(BSA) (bovine) [11] = biological target: 牛血清白蛋白(BSA) (bovine) (UniProt P02769); experiment: ELISA, BSA coated at 1 ug/ml, biotin-labelled antibody at dilution 64K, HRP-avidin
# 牛血清白蛋白(BSA) (bovine) [12] = biological target: 牛血清白蛋白(BSA) (bovine) (UniProt P02769); experiment: ELISA, BSA coated at 1 ug/ml, biotin-labelled antibody at dilution 512K, HRP-avidin
# 牛血清白蛋白(BSA) (bovine) [13] = biological target: 牛血清白蛋白(BSA) (bovine) (UniProt P02769); experiment: sandwich ELISA, coat B2 2 ug/ml, BSA 24 ng/ml, detection biotin-B6 0.2 ug/ml
# 牛血清白蛋白(BSA) (bovine) [14] = biological target: 牛血清白蛋白(BSA) (bovine) (UniProt P02769); experiment: sandwich ELISA, coat B2 2 ug/ml, BSA 6 ng/ml, detection biotin-B6 0.2 ug/ml
# 牛血清白蛋白(BSA) (bovine) [15] = biological target: 牛血清白蛋白(BSA) (bovine) (UniProt P02769); experiment: sandwich ELISA, coat B2 2 ug/ml, BSA 1 ng/ml, detection biotin-B1 0.2 ug/ml
# 牛血清白蛋白(BSA) (bovine) [16] = biological target: 牛血清白蛋白(BSA) (bovine) (UniProt P02769); experiment: ELISA, BSA coated at 1 ug/ml, biotin-labelled antibody at dilution 2K, HRP-avidin
# 牛血清白蛋白(BSA) (bovine) [17] = biological target: 牛血清白蛋白(BSA) (bovine) (UniProt P02769); experiment: sandwich ELISA, coat B2 2 ug/ml, BSA 3 ng/ml, detection biotin-B6 0.2 ug/ml, mean of A and B
# HEK293细胞裂解液 [18] = experiment: sandwich ELISA, coat B2, detection biotin-B6, lysate 125 ug/ml
# CHO细胞裂解液 [19] = experiment: as above
# Vero细胞裂解液 [20] = experiment: as above
# 牛血清白蛋白(BSA) (bovine) [21] = biological target: 牛血清白蛋白(BSA) (bovine) (UniProt P02769); experiment: sandwich ELISA, coat B2 2 ug/ml, BSA 1 ng/ml (positive sample), detection biotin-B6 0.2 ug/ml
# 牛血清白蛋白(BSA) (bovine) [22] = biological target: 牛血清白蛋白(BSA) (bovine) (UniProt P02769); experiment: ELISA, BSA coated at 1 ug/ml, biotin-labelled antibody at dilution 128K, HRP-avidin
# HEK293细胞裂解液 [23] = experiment: sandwich ELISA, coat B2, detection biotin-B6, lysate 15.63 ug/ml
# CHO细胞裂解液 [24] = experiment: as above
# Vero细胞裂解液 [25] = experiment: as above
# 牛血清白蛋白(BSA) (bovine) [26] = biological target: 牛血清白蛋白(BSA) (bovine) (UniProt P02769); experiment: ELISA, BSA coated at 1 ug/ml, biotin-labelled antibody at dilution 256K, HRP-avidin
# 牛血清白蛋白(BSA) (bovine) [27] = biological target: 牛血清白蛋白(BSA) (bovine) (UniProt P02769); experiment: indirect ELISA, BSA coated at 1 ug/ml, purified antibody at dilution 32K, HRP goat anti-mouse IgG
# 牛血清白蛋白(BSA) (bovine) [28] = biological target: 牛血清白蛋白(BSA) (bovine) (UniProt P02769); experiment: indirect ELISA, BSA coated at 1 ug/ml, purified antibody at dilution 512K, HRP goat anti-mouse IgG
# 牛血清白蛋白(BSA) (bovine) [29] = biological target: 牛血清白蛋白(BSA) (bovine) (UniProt P02769); experiment: ELISA, BSA coated at 1 ug/ml, biotin-labelled antibody at dilution 1024K, HRP-avidin
# 牛血清白蛋白(BSA) (bovine) [30] = biological target: 牛血清白蛋白(BSA) (bovine) (UniProt P02769); experiment: ELISA, BSA coated at 1 ug/ml, biotin-labelled antibody at dilution 1K, HRP-avidin
# 牛血清白蛋白(BSA) (bovine) [31] = biological target: 牛血清白蛋白(BSA) (bovine) (UniProt P02769); experiment: indirect ELISA, BSA coated at 1 ug/ml, purified antibody at dilution 64K, HRP goat anti-mouse IgG
binder,measurement,setting,value
B1,OD450,HEK293细胞裂解液 [1],0.142
same,OD450,CHO细胞裂解液 [2],0.132
same,OD450,Vero细胞裂解液 [3],0.129
same,OD450,牛血清白蛋白(BSA) (bovine) [4],0.537
same,OD450 (平均值),牛血清白蛋白(BSA) (bovine) [5],2.21
same,OD450,牛血清白蛋白(BSA) (bovine) [6],0.31 and 0.296
same,OD450,HEK293细胞裂解液 [7],0.139
same,OD450,CHO细胞裂解液 [8],0.135
same,OD450,Vero细胞裂解液 [9],0.134
same,OD450,牛血清白蛋白(BSA) (bovine) [10],2.13
same,OD450,牛血清白蛋白(BSA) (bovine) [11],1.12
same,OD450,牛血清白蛋白(BSA) (bovine) [12],0.308
same,OD450,牛血清白蛋白(BSA) (bovine) [13],1.51 and 1.5
same,OD450,牛血清白蛋白(BSA) (bovine) [14],0.684 and 0.692
same,OD450,牛血清白蛋白(BSA) (bovine) [15],0.312 and 0.315
same,OD450,牛血清白蛋白(BSA) (bovine) [16],2.21
same,OD450 (平均值),牛血清白蛋白(BSA) (bovine) [17],0.512
same,OD450,HEK293细胞裂解液 [18],0.14
same,OD450,CHO细胞裂解液 [19],0.14
same,OD450,Vero细胞裂解液 [20],0.132
same,OD450,牛血清白蛋白(BSA) (bovine) [21],0.392 and 0.389
same,OD450,牛血清白蛋白(BSA) (bovine) [22],0.821
same,OD450,HEK293细胞裂解液 [23],0.136
same,OD450,CHO细胞裂解液 [24],0.141
same,OD450,Vero细胞裂解液 [25],0.136
same,OD450,牛血清白蛋白(BSA) (bovine) [26],0.509
same,OD450,牛血清白蛋白(BSA) (bovine) [27],0.403
same,OD450,牛血清白蛋白(BSA) (bovine) [28],0.137
same,OD450,牛血清白蛋白(BSA) (bovine) [29],0.175
same,OD450,牛血清白蛋白(BSA) (bovine) [30],2.3
same,OD450,牛血清白蛋白(BSA) (bovine) [31],0.335
